These results are taken from patent publication US20150139996A1.

Read-outs that look alike come from different tables or passages of the source.

Experiment [1] has as its target IgG1 heavy chain with CH3 construct 5 (E356K, E357K, K439D, K370D) (human) [IgG part: P01857]. Put plainly: native MS; transfection N: vectors I+III co-expressed 1:1.
Experiment [2] has the same target. In words: native MS; transfection U: vectors I+III co-expressed 1:5.
Experiment [3] shares this target. In words: native MS; transfection O: vectors I+II+III co-expressed 1:1:1.
The target is the same in experiment [4]. Put plainly: native MS; transfection V: vectors I+II+III co-expressed 1:1:10.
Experiment [5] shares this target. Put plainly: native MS; transfection H: vector III alone (VH MF1122, construct 5).
Experiment [6] has as its target IgG1 heavy chain with CH3 construct 64 (T366D) (human) [IgG part: P01857]. In words: native MS; transfection ZP: vectors XIV+XVII co-expressed.
Experiment [7] has the same target. Put plainly: native MS; combination 15 co-expressed (A: VH MF1337, B: VH MF1122).
Experiment [8] has as its target IgG1 heavy chain with CH3 construct 76 (L351K, L368K) (human) [IgG part: P01857]. The experiment is described as above.
Experiment [9] deals with IgG1 heavy chain with CH3 construct 64 (T366D) (human) [IgG part: P01857]. Put plainly: native MS; combination 16 co-expressed (A: VH MF1337, B: VH MF1122).
Experiment [10] deals with IgG1 heavy chain with CH3 construct 77 (L351R) (human) [IgG part: P01857]. The description is as above.
The target of experiment [11] is IgG1 heavy chain with CH3 construct 64 (T366D) (human) [IgG part: P01857]. In words: SDS-PAGE of protein A-purified supernatant; construct expressed alone.
The target of experiment [12] is IgG1 heavy chain with CH3 construct 2 (K392D, K409D) (human) [IgG part: P01857].
For experiment [13] the target is unchanged. Put plainly: native MS; transfection I: vectors IV+V co-expressed 1:1.
Experiment [14] concerns the target IgG1 heavy chain with CH3 construct 3 (K392D, K409D, K439D) (human) [IgG part: P01857]. In words: native MS; transfection J: vectors IV+VII co-expressed 1:1.
Experiment [15] addresses IgG1 heavy chain with CH3 construct 1 (E356K, D399K) (human) [IgG part: P01857]. In words: SDS-PAGE of protein A-purified supernatant; construct expressed alone.
The target is the same in experiment [16]. In words: native MS; transfection S: vectors IV+V+VI 2:1:1; homodimer of vector IV.
Experiment [17] shares this target. In words: native MS; transfection B: vector IV alone (thyroglobulin VH, construct 1).
For experiment [18] the target is unchanged. In words: native MS; transfection T: vectors IV+VII+VIII 2:1:1; homodimer of vector IV.
Experiment [19] addresses IgG1 heavy chain with CH3 construct 2 (K392D, K409D) (human) [IgG part: P01857]. In words: native MS; transfection S: vectors IV+V+VI 2:1:1; BC = vector IV with vector V.
The target is the same in experiment [20]. In words: native MS; transfection S: vectors IV+V+VI 2:1:1; AB = vector IV with vector VI.
Experiment [21] has as its target IgG1 heavy chain with CH3 construct 3 (K392D, K409D, K439D) (human) [IgG part: P01857]. Put plainly: native MS; transfection L: vectors IV+VII+VIII 1:1:1; BC = vector IV with vector VII.
Experiment [22] has the same target. Put plainly: native MS; transfection T: vectors IV+VII+VIII 2:1:1; BC = vector IV with vector VII.
The target is the same in experiment [23]. Put plainly: native MS; transfection L: vectors IV+VII+VIII 1:1:1; AB = vector IV with vector VIII.
Experiment [24] shares this target. In words: native MS; transfection T: vectors IV+VII+VIII 2:1:1; AB = vector IV with vector VIII.
The target of experiment [25] is IgG1 heavy chain with CH3 construct 2 (K392D, K409D) (human) [IgG part: P01857]. Put plainly: native MS (peak height); transfection #11 of Table 24; CC = C (fibrinogen)/1 with C/2.
Experiment [26] shares this target. Put plainly: native MS (peak height); transfection #9 of Table 24; CD = C (fibrinogen)/1 with D (RTK2)/2.
Experiment [27] has the same target. In words: native MS; transfection K: vectors IV+V+VI 1:1:1; BC = vector IV with vector V (fibrinogen VH).
Experiment [28] addresses IgG1 heavy chain with CH3 construct 63 (L351D) (human) [IgG part: P01857]. In words: native MS; transfection ZO (1:1): vectors XIII+XVI co-expressed.
For experiment [29] the target is unchanged. Put plainly: native MS; transfection ZT (3:1): vectors XIII+XVI co-expressed.
Experiment [30] has the same target. In words: native MS; transfection ZU (1:1): vectors XIII+XVI co-expressed.
Experiment [31] shares this target. In words: native MS; transfection ZV (1:3): vectors XIII+XVI co-expressed.
Experiment [32] shares this target. Put plainly: native MS; transfection ZW (1:1): vectors XIII+XVI co-expressed.
Experiment [33] shares this target. Put plainly: native MS; combination 2 co-expressed (A: VH MF1337, B: VH MF1122).
Experiment [34] shares this target. Put plainly: native MS; combination 7 co-expressed (A: VH MF1337, B: VH MF1122).
The target is the same in experiment [35]. Put plainly: SDS-PAGE of protein A-purified supernatant; construct expressed alone.
Experiment [36] has as its target IgG1 heavy chain with wildtype CH3 (construct vector MV1057, wildtype IgG1 Fc) (human) [IgG part: P01857]. Put plainly: native MS; transfection M: vectors I+II co-expressed 1:1.
Experiment [37] has the same target. In words: native MS; transfection N: vectors I+III co-expressed 1:1.
Experiment [38] has the same target. In words: native MS; transfection U: vectors I+III co-expressed 1:5.
Experiment [39] shares this target. Put plainly: native MS; transfection O: vectors I+II+III co-expressed 1:1:1.
For experiment [40] the target is unchanged. In words: native MS; transfection V: vectors I+II+III co-expressed 1:1:10.
Experiment [41] has the same target. In words: native MS; transfection A: vector I alone (VH MF1337, wildtype CH3).
Experiment [42] deals with IgG1 heavy chain with CH3 construct 67 (K360D) (human) [IgG part: P01857]. In words: native MS; transfection ZS: vectors XI+XX co-expressed.
The target of experiment [43] is IgG1 heavy chain with CH3 construct 66 (V397D) (human) [IgG part: P01857]. In words: native MS; transfection ZR: vectors XV+XIX co-expressed.
The target of experiment [44] is IgG1 heavy chain with CH3 construct 4 (K392D, D399K, K409D) (human) [IgG part: P01857]. Put plainly: native MS; transfection M: vectors I+II co-expressed 1:1.
Experiment [45] shares this target. In words: native MS; transfection O: vectors I+II+III co-expressed 1:1:1.
Experiment [46] has the same target. In words: native MS; transfection V: vectors I+II+III co-expressed 1:1:10.
Experiment [47] has the same target. In words: native MS; transfection G: vector II alone (VH MF1025, construct 4).
For experiment [48], the target named is IgG1 heavy chain with CH3 construct 65 (S354D, Y349D) (human) [IgG part: P01857]. Put plainly: native MS; transfection ZQ: vectors XII+XVIII co-expressed.

With “IgG1 heavy chain with CH3 construct 5 (E356K, E357K, K439D, K370D) (from UniProt P01857-1)”, the CC found (%) was 9% in [1]; 48% in experiment [2]; 30% in experiment [3]; 9% in experiment [4]; 100% in experiment [5].
“IgG1 heavy chain with CH3 construct 64 (T366D) (from UniProt P01857-1)” gave a CC found (%) in [6] of 13%. Besides, the % AA found came to 3% in experiment [7] and 30% in [9]. The % AB found in experiment [8] was 92%; in [10], 69%. For the same substance, in experiment [11], the % IgG was 89.6%. In experiment [11], this substance came in with a % half molecule of 10.4%.
With “IgG1 heavy chain with CH3 construct 1 (E356K, D399K) (from UniProt P01857-1)”, the Bispecific found (%) in [12] came out at 47%; in experiment [13] it was 96%; in [14], 96%; in experiment [19], 42%; in [20], 55%; in [21], 16%. The Bispecific found (%) in experiment [22] was determined as 58%; in experiment [23] it was 60%; in [24], 39%; in experiment [27], 38%. Besides, the % IgG in [15] was determined as 64.2%. The substance further showed a % half molecule in experiment [15] of 35.8%. Further, the Other molecules (%) in experiment [16] and in [18] was 3% in each case. In addition, the Full IgG found (%) in experiment [17] came out at 60%. In experiment [17], this substance yielded a Half molecules found (%) of 40%. The percent of species in the mixture in [25] came out at 61%; in experiment [26], 67%.
“IgG1 heavy chain with CH3 construct 63 (L351D) (from UniProt P01857-1)”: the CC found (%) was 7% in [28]; 16% in experiment [29]; 10% in experiment [30]; 23% in [31]; 2.4% in experiment [32]. The % BB found in [33] was 3%; in experiment [34], 12%. This substance registered a % IgG in [35] of 89.8%. The same substance had a % half molecule in experiment [35] of 10.2%.
As to “IgG1 heavy chain with wildtype CH3 (construct vector MV1057, wildtype IgG1 Fc) (from UniProt P01857-1)”, the AA found (%) came out at 51% in experiment [36]; 88% in experiment [37]; 47% in experiment [38]; 66% in experiment [39]; 8% in experiment [40]; 100% in experiment [41].
As to “IgG1 heavy chain with CH3 construct 67 (K360D) (from UniProt P01857-1)”, in experiment [42], the CC found (%) was 15%.
Substance “IgG1 heavy chain with CH3 construct 66 (V397D) (from UniProt P01857-1)” showed a CC found (%) in experiment [43] of 11%.
Take “IgG1 heavy chain with CH3 construct 4 (K392D, D399K, K409D) (from UniProt P01857-1)”: the BB found (%) amounted to 45% in experiment [44], 4% in experiment [45], 81% in experiment [46] and 100% in [47].
On to “IgG1 heavy chain with CH3 construct 65 (S354D, Y349D) (from UniProt P01857-1)”, for which the CC found (%) in [48] turned out to be 33%.
